# Reference: article PMC7749166 (Communications Biology, 2020)
# B1: C5a: C5a, a large 74-amino acid glycoprotein; endogenous ligand of C5aR (His6-tag at N-terminal end for AFM tips) (protein)
# chain: TLQKKIEEIAAKYKHSVVKKCCYDGACVNNDETCEQRAARISLGPRCIKAFTECCVVASQLRANISHKDMQLGR
# modifications: left off: His6, N-terminal, kept
# Biological target: T1, C5aR^R175V/Y258V (Homo sapiens, UniProt P21730, R175V/Y258V)
# T1 construct: Flag (N); His8 (C); made in house; host or cells: HEK-293S cells (BacMam baculovirus)
# T1 sequence (P21730 1-350 R175V/Y258V): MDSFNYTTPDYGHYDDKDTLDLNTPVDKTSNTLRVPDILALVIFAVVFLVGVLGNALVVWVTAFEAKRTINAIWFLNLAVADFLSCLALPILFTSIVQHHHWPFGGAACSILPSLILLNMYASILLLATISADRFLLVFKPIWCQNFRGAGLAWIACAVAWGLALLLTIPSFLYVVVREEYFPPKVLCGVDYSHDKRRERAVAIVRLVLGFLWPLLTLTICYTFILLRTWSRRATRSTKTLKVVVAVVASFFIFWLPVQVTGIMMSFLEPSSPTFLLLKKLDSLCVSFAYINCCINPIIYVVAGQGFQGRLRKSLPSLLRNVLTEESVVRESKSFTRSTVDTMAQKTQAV
# Assay: 35S-GTPγS binding assay, R175V/Y258V mutant
# Type: biochemical
# Conditions: increased concentration of C5a, Fig. S7
# Experimental: Mutant variants (D282A, D282N, and R175V/Y258V) were generated based on the wtC5aR construct and fully sequenced. Mutant variants were expressed following the same method as for wtC5aR except for some modifications. HEK-293S cells expressing each mutant were pelleted by centrifugation and resuspended in 20 ml buffer containing 20 mM HEPES pH 7.5, 100 mM NaCl, 0.2 μg ml^−1 leupeptin, and 150 μg ml^−1 benzamidine. After 20 min incubation at 25 °C, 20 ml 2X solubilization buffer containing 20 mM HEPES pH 7.5, 100 mM NaCl, 1% dodecyl-maltoside (DDM), 0.2% cholesterol hemisuccinate (CHS), 20% glycerol, 0.2 μg ml^−1 leupeptin, 150 μg ml^−1 benzamidine, and 5 U Salt Active Nuclease (Sigma) was added. Cell membranes were solubilized for 1.5 h at 4 °C. […]
# For the ^35S-GTPγS binding assays, the membrane of HEK293S GnTI^− cells expressing wtC5aR (~200 µg ml^−1) or mutant variants was incubated with 200 nM purified Gi protein for 30 min on ice in buffer containing 20 mM HEPES pH 7.5, 100 mM NaCl, 5 mM MgCl2, 3 μg ml^−1 BSA, 0.1 μM TCEP, and 5 μM GDP to get the receptor and Gi complex. […] The radiation of bound ^35S-GTPγS was measured on a Beckman LS6500 scintillation counter to determine the binding of ^35S-GTPγS to Gi induced by C5aR activation. […]
molecule,measurement,value
B1,Gi-protein activation vs C5aR^WT,strong reduction in the Gi-protein activation
